Experiments:
[1] = target: the molecule itself; experiment: SEC + cross-linking; purified native Pxmp2 in detergent; Superdex 200 size-exclusion chromatography; protein eluted from the column treated with Sulfo-EGS, immunoblot with anti-Pxmp2; details in Text S1
[2] = target: the molecule itself; experiment: cross-linking; Genapol X-080-solubilised proteins (about 50 ug) of the PPF of Sf9 cells expressing His-tagged Pxmp2; DSS at 0.1, 0.2, 0.5 and 1.0 mM, 30 min at room temperature; SDS-PAGE, immunoblot with anti-His-tag antibodies

Protein	stoichiometry N [1]	stoichiometry N [2]
native Pxmp2 purified from mouse liver peroxisomes (natural protein, mouse (endogenous in mouse liver), UniProt P42925 1-194, looked up, Pxmp2, peroxisomal membrane protein 2 (22 kDa), mouse; native protein isolated from liver peroxisomes; also called PMP22; purified Pxmp2; source: purified from mouse liver peroxisomes (conventional chromatography: ion-exchange and size-exclusion steps, in detergent)) MAPAASRLRVESELGSLPKRALAQYLLLLKLYPVLTKAVSSGILSALGNLLAQTIEKKQRKDSRLLEVSGLLRYLVYGLFVTGPLSHYLYLFMEYSVPPEVPWASVKRLLLDRLFFAPTFLLLFFFVMNLLEGKNVSVFVAKMRSGFWPALQMNWRMWTPLQFININYVPLQFRVLFANMAALFWYAYLASLGK	3	–
His-tagged Pxmp2 protein (natural protein, mouse, UniProt P42925 1-194, looked up, Pxmp2, mouse, recombinant with a His tag (about 27 kDa); also called mouse recombinant Pxmp2) MAPAASRLRVESELGSLPKRALAQYLLLLKLYPVLTKAVSSGILSALGNLLAQTIEKKQRKDSRLLEVSGLLRYLVYGLFVTGPLSHYLYLFMEYSVPPEVPWASVKRLLLDRLFFAPTFLLLFFFVMNLLEGKNVSVFVAKMRSGFWPALQMNWRMWTPLQFININYVPLQFRVLFANMAALFWYAYLASLGK	–	3
